# Measured values as given in the RNAGym collection of RNA variant scans (doi:10.1073/pnas.2313332121).
# Variants at the floor of the assay were thinned out.
# B1: TPR 5TU (parent)
# chain: GGAUCUUCUCGAUCUAACAAAAAAGACAAAUCUGCCACAAAGCUUGAGAGCAUCUUCGGAUGCAGAGGCGGCAGCCUUCGGUGGCGCGAUAGCGCCAACGUUCUCAACUAUGACACGCAAAACGCGUGCUCCGUUGAAUGGAGUUUAUCAUG
# Variants of: B1
# Experiment: polymerase ribozyme fitness, log enrichment relative to wild type (log ratio); higher = more active; in vitro selection for triplet polymerase activity
# Outline: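 Both subunits of a heterodimeric triplet polymerase ribozyme were given their own mutant library, built by PCR and transcribed. Each library was annealed with a biotinylated primer, the partner subunit and triplets, incubated frozen at −7 °C, and its extended constructs gel-excised, captured on streptavidin beads and amplified by RT-PCR, all in one round done in triplicate. Fitness is the logarithm of genotype enrichment relative to wild-type enrichment, with replicates averaged by inverse-variance weighting. That logarithm is base 2, and Illumina-sequenced genotypes needed ≥10 input reads and ≥1 read per output.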
row,Variant,polymerase ribozyme fitness (log ratio)
1,U82A G124A,0.114
2,G83U A98C C123U C125U C129A,-3.47
3,U82G G86U C123U,-1.47
4,G83C C95G U148G,≤ -4.2
5,C79U G88C C93A G136U G143C,≤ -4.2
6,G80C G84C G133A G141C,≤ -4.2
7,G83A A115G,-1.64
8,G83A A119C,-2.44
9,G83U C93U C96G U135A,-2.89
10,G81C G141C,-0.0339
11,G83A A119C A137G G143A,-2.54
12,G83A A115G A150G,-2.88
13,G80U C118A A119G,-1.3
14,G83U G88U A150U,-3.49
15,G83U G92C U111A,≤ -4.2
16,G80A U144G,1.27
17,G83A A97C U104A G136A,-1.39
18,G83A C114U,-2.41
19,U82C G86A,-2.06
20,G83U G128U,-3.22
21,G83C U144C,-1.58
22,G83C U148G G152A,-3.67
23,U82A C95A A97C C103U U134A,-3.46
24,G83U C87G C99U,≤ -4.2

row,Variant,polymerase ribozyme fitness (log ratio)
1,G80A C132U,-0.678
2,U82G G86A,-0.594
3,U82G G86U,-1.46
4,G83A C95U A106C A107G,-3.5
5,G83A C96U C118U,-0.697
6,U82G A137C,-2.98
7,U82G G84A U145C,-0.385
8,U82G C96U A137C,-3.87
9,G80A A150G,-1.8
10,G83A G88U C125A G152U,≤ -4.2
11,G83A U151A,-3.69
12,G81A C87U A91U G112U G143A,≤ -4.2
13,G81A G152U,-3.09
14,G81A G152C,-3.29
15,G81C C93U U130G C131U A150U,≤ -4.2
16,G83U A107U G141U,≤ -4.2
17,G83A A97U A98U A138U,-4.07
18,C79U G84A C108A C114A C118A U139G,≤ -4.2
19,G81A A89C,-0.165
20,U82A A106U C116U G126U U145C,-2.88
21,U82G A113G C125U,-3.28
22,G83A A91C A142G,≤ -4.2
23,G83U A113U,-2.14
24,G83C C96U A147U G152A,-1.98

row,Variant,polymerase ribozyme fitness (log ratio)
1,G81U C85A C95A,-1.06
2,C79U G84A,-3.04
3,G81U G94C U144A,-0.944
4,G83U A150G,-3.14
5,G80U C95G C96A,≤ -4.2
6,G81A U127C,-2.04
7,G81A U127G,-3.31
8,G83C A106G,-0.352
9,G80U G86U G94C C105A U134A,≤ -4.2
10,G81C G86A,-1.83
11,G80A C93U,-1.6
12,G81U C96U,-1.85
13,G83U C87U,-1.25
14,G83U C105G A107G U135G G152C,≤ -4.2
15,G80U G81C G84U A89U A97U G100A G126U,≤ -4.2
16,G80C C87U U102G G124C U130A,≤ -4.2
17,C79U G140C,-4.1
18,G81A C85A C149U,-0.877
19,G83C G84U A110C,≤ -4.2
20,G81U C96U A150C,-3.33
21,U82C G94C C108A A110G A113G G140U,≤ -4.2
22,G80C C85U A97C C99A G141U,-3.93
23,G83C G92A,≤ -4.2
24,G83C C116A U146G,-3.27

row,Variant,polymerase ribozyme fitness (log ratio)
1,G81C C85U,0.0549
2,G81C C85U A107C G126A,-4.16
3,G83U G112U,-4
4,G83U U139G,-0.239
5,U82G C96G C118U G141A A147U,-1.93
6,G83U G100U C103A C131U,≤ -4.2
7,G83U C87U A89C C123A C125U,-1.33
8,G83A C99U,-2.05
9,G80A C85A,-0.619
10,G83C G152C,-3.16
11,G83U A121C A142U,-1.46
12,G83C C132A,-2.69
13,G81A C105U,1.52
14,G81A C118A U148C,-2.6
15,G83U A120U A137C,-3.31
16,G81A C87U A97U,-1.53
17,G83A C85U A115U C116U,-2.68
18,G83A C118A C129A,-3.64
19,G81A C93U C95U,-1.11
20,U82A A115U U135A,-2.53
21,G80A C87U A89C C99A A120U,-2
22,U82G A110G C125G A137U,≤ -4.2
23,G83A U101G A106U U145C,-2.55
24,G81U G84U A119U G143A,-1.61

row,Variant,polymerase ribozyme fitness (log ratio)
1,G83A C95U,-0.657
2,G83A C95G,-1.23
3,G80U C105U G136U,-1.49
4,G81A A89C A119U C132G U135C G143C U148A,≤ -4.2
5,G81U G141A,0.321
6,G80C G86U G94C A137C,≤ -4.2
7,G83U G117U,-0.498
8,U82G G86A C96A,-2.04
9,G80A A91C G94A,-4.16
10,U82A G92U,-0.55
11,U82A G92C,0.508
12,U82G G141U,1.45
13,U82C C93G C116G C118U G140A A150C,≤ -4.2
14,U82C G94A,-1.35
15,C79U U90A A137G,≤ -4.2
16,G81A C95A,-0.0952
17,U82G C99G,-0.787
18,G81C G94U A98U U146G,-0.695
19,G80C C95U C99A G133U,≤ -4.2
20,G83A U104G A122U U134G,-3.23
21,G80A G83A A106U C116G U139C G143A,≤ -4.2
22,G83U G94U C95A,-1.62
23,U82A U127C G152U,-3.97
24,G81C G140C,-3.7

row,Variant,polymerase ribozyme fitness (log ratio)
1,G80C G86U,-3.37
2,G83A U90G G94C A110G G152U,≤ -4.2
3,U82G C125G,-1.76
4,U82C C85A U145C,0.554
5,G81A C131G G140C,-4
6,U82C A115U G136C,-3.84
7,G83U A115C,-0.337
8,G83C C93U C96A,-1.71
9,U82G A89U A91U A98U G100C,≤ -4.2
10,U82A A107U,-2.79
11,U82G A121G,-0.49
12,G83C A121U,0.406
13,U82A C103G A113U A137C U148A,≤ -4.2
14,G83C C93G,≤ -4.2
15,G83C C93U,-2.49
16,U82G C95A,-1.03
17,G83C U101G A106U,-3.95
18,G81C A89U C96G,-0.784
19,G81U C93U G94U A98G C131A A137U,≤ -4.2
20,G83U G126A,-0.669
21,G80C G83A A110U,≤ -4.2
22,G83C C105G G126A,-2.8
23,G80U A110G,-4.05
24,G83U G92A C125G A138G U151A,≤ -4.2

row,Variant,polymerase ribozyme fitness (log ratio)
1,G83A G141U G143A,≤ -4.2
2,G83C G84U C87U U102G A107U,≤ -4.2
3,G83U C149U,-1.76
4,G83U U102C,-1.16
5,U82A C125A,-0.504
6,U82A C125G,-0.33
7,G83C C125A U144A,-2.36
8,G83A C85U A106C C132G G140A,≤ -4.2
9,U82G U104C C116U C125U A138C,≤ -4.2
10,G81U G92U U148G G152A,-3.95
11,U82A A120C U130C G143U,-2.44
12,G83C A89U G124U,-1.35
13,G83C C125A G136U,-2.54
14,U82G G84U C99U G128C,≤ -4.2
15,G83A U102C C103G U145G,≤ -4.2
16,G80C G83U C118A G141C,-3.94
17,G80A C85A A142C,-2.14
18,G83A A91G C93U C149A,≤ -4.2
19,G81C G143C,-2.03
20,G83A C85U,-1.94
21,U82A C93G,-3.41
22,G83C G117U,-1.62
23,G83C C116U A120C U135G,-3.87
